Assay: soluble on expression in E. coli; label from the status in PepcDB or PDB records

Sequence | soluble on expression in E. coli
MIIDEKRVQEIKNGETSLGIEFGSTRIKAVLIANDFSILASGSFEWETSLENGVWTYSIDEIWKGLQYSYQKLFAEVKEKYGVVLSKIGSIGFSAMMHGYMAFDNKGELLVPFRTWRNTMTEEAAKKLTDLFKFNIPERWSIAHLYQAILRNEPHVEKIDFLTTLAGYIHWQLTGEKVLGIGDASGMFPIDTQTHNYDKNMLETFKNLPEVKKHSLDLEKLLPKVLLAGENAGVLTLEGAKKLDVSGNLQPGIPLCPPEGDAGTGMVATNSVAPRTGNVSAGTSIFAMVVLEKPLNRVHPEIDIVTTPSGDLVAMVHANNGCSDLEAWVNIFQQFTEAINVDMRKDLLYMALYTQAFQGDPDCGGVLAYNYFAGENITGVSEGRPMVVRKAKSNFNLPNFMRAHLFTSLGALKIGMDILLKDEAVKLDKLLGHGGLFKTPIVGQAAVAGAVNAPVSVMETAGEGGAWGIALLASYLRSKENDSTLPEFLSKNVFAGYVAEEVQPDPKDVKGFEEFIERYKKGIAIEQAAVEHLILEHHHHHH | not soluble
MPDSLKSSIGYSRRFRLFRRGEVTVLEVMAGQKAYPDTLRYLLVPEGRPQPSGFVGYTVIRTPVKRIAVFSTTHIGFLDMLGRSDGIIGVSRPEFVNTPAVRSRIRSGAIKAIGMPFSPDVEALLNLEPDLVIAPALPAARKTDYQALVQAGIPVLVVAEWLEPSPLGRAEWIKLFGALVGKEKLARERFAAIESSYLKIAALSRNLPNRPTVLTGLPVKDAWYVPTGGSYVAAMLRDAGASYHWRDLPGTGSVPLTIEAVWPVALEAEYWLNTGTVSTLDELLAVDSRFGQMRSVRERRVWNNNRLVNAAGGNAYWESGVVRPDLILKDLVMILHPGLLRAHGIGEGELTFFQEVKLEHHHHHH | not soluble
TKDFSWNTDFTFSFYRDKWKERDENWSPNPYDMYNAPLRGYYMYLSDGLIQPGEEVSWMPGALPGQVKLKDIDGYAYNED | not soluble
MGSDKIHHHHHHMKKMLKPFYNWLRLKLQFLEEAYYFWLLLCRHNASVNTEASMKKMQYILLREAHVIEKGMSMRNPRKGFGQAKILIMLQNLNRYYDLYSTEDLDFLKFPISTVGSYIQYTNEMGIDITKIEQQYLNLVSRTGFQNLNRHSGIESIAKSDILKECNKTFESLLYSRHSIRYFDNKIPSKEMLEKALKLASRTPSACNRQGWLTHIFIGEKSYSLLQWQGGSNGFEKEIHCSILVTANLNAFLSYEVHQAYVDGGLYAMNLLNALHSLGLGTIPLSCGFGYSKLRMLKKQFYIPENEVPIMIIGVGELLDHFNVAISMRRDVSTTNTYHY | not soluble
MGDTKVETISRLAQWRIENFGPCSFKKSDPFKVGIWNWHLSIERNRYLSVRLFPELSRVSKEQPPVAKFVLRVSNVGPNRRFYISPVYEKLLRTTDDCVWHVDSSFHGRFTIDVEFLDLKICPVNGGEASPVWPTDATMQSISTQTTLKCLSRMLEESILTDVIIHTADGTLSAHKAILSASSTVFKSMFHHDLMEKESSTIHIDDMSRESCMALLSYLYGNITQEEFWKHRLALLGAANKYDITDLKAACEESLMEDINSSNVLERLQEAWLYQLEKLKKGCLMYLFDFGKIYDVREEISSFFRQADRELMLEMFQEVLSVWKPV | soluble
MLSRNIGAVRGAHKAATTKPVEKVAKLGNGLTVGTIDSHKPIAHLVLAFRAGSRYEKANQAGLSHTIRNFVGRDTQEYFGNTVVWTLSQTGGVLKSFTSRDLFGVSLTIPRESTSVGLSVLGQVAGNPGFKPWEVEDVLPTMRADNGYRTAYDLVVDQIHKAAYRNGGLGNSIYAPCSKIGSICTSTLSSFAEQHFVTGNGVLFATNAVHDDLLLYGDNHAPIRSGNAASPSSSAYKGGEVRRDADSKYAHVIVAGEGAAGNNTKALATQAVLLTALGNSSPVKFNTGTTGVIAKAVGQNGSASAFQAVHADSGLAGVYLVVEGSQANQAVSNVVGALKSLKVADIEAVKKQAFNNALRASAHSDNFAIERASQLFQSQDNYIQQIPNVSASDVEVAAKKLTTKLSLASYGNVSEVPYVDTL | not soluble
MGSDKIHHHHHHMFKETLRECMEGHTLAERKAEQVMDAIMKGEATASQIASLLTVLRFRGETVAEMTGFARAMRRHSIQIEHSFSQVVDTCGTGGDDVGTFNISTATALLVSALGVPVAKHGNRAVSSKSGSADVLEALQIPIQSSPEEATASLQKHNMCFMFAPLYHVAMKHAVAPRKEIGFRTIFNLLGPLTNPARAEHQLIGVYDRNFAEKMAETLRRLGTKHSLLVAGHGGLDELSITGPSTVFEVKGDAIDRYELIPEDVGLERGDLAQIQVSTVQESATLIDQVLIGKANKSAQQIVLLNAGAALYAADRVDSIKAGVALAKEGIASGHVADHVRNLRQTDQEAEQHA | not soluble
MELYLIRHGIAEAQKTGIKDEERELTQEGKQKTEKVAYRLVKLGRQFDLIVTSPLIRARQTAEILLASGLSCQLEESNHLAPNGNIFNWLDYWLKPKNFPENAQIAIVGHEPCLSNWTEILLWGEAKDSLVLKKAGMIGLKLPEIGSPVGRSQMFWLTPPRYLLLEHHHHHH | soluble
MGSDKIHHHHHHMTTLKARLRQGQAITMIGNSLPDTYAAEMVASAGFDAVMIDLQHSAIGLHEVNDLARAVRAQGCAPVVRVAANDPAAITKVLDGGVDAVVAPMINSAEACRQFISACYYAPLGDRSFGPYLGQVIQRQSIQDYYAQTRDRLLPIAMIENEEGVRQAEQIMRTEGLGAIYVGASDLSIAMGMDCVPDYRNARLLDCIKGLIDLGERCGIPVGAFAPTLEDSLMLQSLGSRILWVGSDQGFIKAGCAARAQQYHAESSPRR | not soluble
MGHHHHHHSHDKAIKETSILEEYSINWTQKLGAGISGPVRVCVKKSTQERFALKILLDRPKARNEVRLHMMCATHPNIVQIIEVFANSVQFPHESSPRARLLIVMEMMEGGELFHRISQHRHFTEKQASQVTKQIALALRHCHLLNIAHRDLKPENLLFKDNSLDAPVKLCDFGFAKIDQGDLMTPQFTPYYVAPQVLEAQRRHQKEKSGIIPTSPTPYTYNKSCDLWSLGVIIYVMLCGYPPFYSKHHSRTIPKDMRRKIMTGSFEFPEEEWSQISEMAKDVVRKLLKVKPERRLTIEGVLDHPWLNSTEALDNVLPSAQLMMDKAVVAGIQQAHAEQLANMRIQDLKVSLKPLHSVNNPILRKRKLLGTKPKDSVYIHDHENGAEDSNVALEKLRDVIAQCILPQAGENEDEKLNEVMQEAWKYNRECKLLRDTLQSFSWNGRGFTDKVDRLKLAEIVKQVIEEQT | soluble
GAMALVDGFLELERSSGKLEWSAILQKMASDLGFSKILFGLLPKDSQDYENAFIVGNYPAAWREHYDRAGYARVDPTVSHCTQSVLPIFWEPSIYQTRKQHEFFEEASAAGLVYGLTMPLHGARGELGALSLSVEAENRAEANRFMESVLPTLWMLKDYALQSGAGLAFEHPVSK | soluble
MSLNKLEKEASVFFKKNQESVSQDFKKKVSSIEMFSTSLNSEENQSLDRLFLSETQNLSDEESYQEDVLSVKLLTSQIKAIQKQHVLLLGEKIYNARKILSKSCFSSTTFSSWLDLVFRTKSSAYNALAYYELFISLPSTTLQKEFQSIPYKSAYILAARKGDLKTKVSVIGKVCGMSNASAIRVMDQLLPSSRSKDNQRFFESDLEKNRQLSDLLVELLRIVCSGVFLSPYNENLLQQLFEVYKQKSEGHHHHHH | soluble
MRGLSLSPVVLPEVRREAGVELRKARLEDVDAIYWLIRYWAEKGLMLVRSHSHLYENIRDFWVLEDEDGQIVGTVALHVLWRDLAEIRGLAVHPTRQGQGLGRWLVLGAEREARDLGLPRVFAWTLQVNFFRALGYRVTSR | not soluble
MGSDKIHHHHHHQTAEPPKTVRPDQLAFRDLYKELVEINTTLSVGSCTAASEAMGARLKAAGFPEADVRVVVEPKHPREGNLVAVLRGTDATTKPMLLLAHIDVVEAKREDWTRDPFKLVEENGYFYGRGTSDDKAQAAIWVDSLIRLKQAGFKPKRDIKMALTCGEESEGYNGIEDLLKNHRPLVDAEFALNEGASGLLDEQGKAVMLEVQAGEKVYQDFTLTVTNPGGHSSRPVSPNAIYQLSAALDRIGAYQFPPRFNDATRGYFTQMQARVTPEQAAAMKTLVADVNDPAALALITKDRTWNSMLRTTCVATMVSAGHAPNALPQRATANINCRILPGTPIDEVKAKLTELAADPAVAVTLAHSSKPASPPPPLTPAIMAPIQKNAAKLWPGVPILPVMSTGATDAVHTSAAGIPTYGVTGLFHGPEGTGAHGLNERMRVKSLYEGRDFLHGLIQDYAGGK | not soluble
GMHSALQLRSRIKSSGELELSLDSIDTPHPGPDEVLIRIEASPLNPSDLGLLFGAADMSTAKASGTAERPIVTARVPEGAMRSMAGRLDASMPVGNEGAGVVVEAGSSPAAQALMGKTVAAIGGAMYSQYRCIPADQCLVLPEGATPADGASSFVNPLTALGMVETMRLEGHSALVHTAAASNLGQMLNQICLKDGIKLVNIVRKQEQADLLKAQGAVHVCNAASPTFMQDLTEALVSTGATIAFDATGGGKLGGQILTCMEAALNKSAREYSRYGSTTHKQVYLYGGLDTSPTEFNRNFGMAWGMGGWLLFPFLQKIGRERANALKQRVVAELKTTFASHYSKEISLAEVLDLDMIAVYNKRATGEKYLINPNKGLAG | soluble
MSLAQQSYPNKPIRVIVPFAAGSTTDIIARAIADKMGQSMGQSLVVDNRSGASGTIGQQAVATAPADGYTLMVHSSSHTVSPSTFAKLPFDTQADFAGVTPISSLPNALVIAPAKNIRTLQALLAAARARPGSINFASAGQGSATHLNAEKFRLAARIEATNIPFKGSAEAVTEVLSGRVDYYFSPIAPVIGQIRDGQLLALAVGSPKRAAALPEVPTTAEAGVPGSEFNFWIGMMAPAKTPRAIVERLHDEVVKALATPEVKERFLKLGADAWTLRPEQFDAYIKQEIASNAQLVQAAGLQVPQEGHHHHHH | soluble
MGSDKIHHHHHHMEENIWWRGKDYIEEDEDIKKWNSAKFKWIPKEINKISLQPFSLNFIVGPRQVGKTTLIKLLIKKLLESNHNPLSIFYCSCDLVSDYEELLKRTRDYLKIRKQEGIKSSFIFLDEVTFVKEWYRAVKHLIDTGELTSDVVTVSGSSSLTILKQKESFPGRRGNGTDVILYPLSFSGYINVINPKIEVRPGWYSEIEELFESYLKVGGLPPSINGLSPLKTYTEWIIYEINRVGRDEMLAKQILSAVLSTTPSKVSYNSIAKEIGVNHRTVAEYIKLFNDMFLTLTLHFIDVNTGYYNYRKQIKIHFVDPLFYDVMSTWTGVKRPDDPIIVEGIVASHLSRIYSIGYTEVGKEEIDVVTLPEVIGYEVKYRERTKQVKVIAGKMKKVITLSKHGENDTFPVHLFLAELNI | not soluble
GPGSMPAYSEVKGTCGTPVLDQLIGYYVNIQSRKMYYKDFLRIEHQAVRWAFADIRKNSEALAHGLLQTGVRPGDRVLAIQPCNCETFVLQLSCAKIGALLCIVPQDTISADKLRFYLNEFQPRHLVAREWINVPEMKQGELVERNMHFWDTIYNVIPELGLSYPGQKFQWVHSQEFYYLKKIIITDHNMNLLGVTPMRKMLVWGPFSYYEQRLRRLSALLHPDDPVLALEDPNPAMEDKLHITYSHRNCVNAGFLFGQLMQLKAETRFGVMPNHHTDPIGAIIAPYAALTSGAVLVHIHSDMFTDDHAINGIEKLCVEEVETLVGRKADFDLILKHAGNFDADQFEHLRSVVIFEDGIEAPVSEEYLNKLSKALSLDDVYVFRGPIEASYMLTWRTLKKGSQGMVPHVEAKVVGDRGTSDAKVLVAGTRGNLRLKGPHVTAGYYNNAGLMTELIDEHGFASTSREAMIDGKDNITLMSAQTY | not soluble
MDSEAVSSDSHVAAAIATRRRSNSVSDDYSVQRTNDDATQCKYFATQKGYWKDEFISRFANSSSNVSEARRFPEISMGYWARTAAIEKYVRDFLNEFDGNAQVVSLGCGFDTLFWRLVSSGAKLVKYVEVDFSSVTSKKIRHILKPIGPNSVDLKKSFESDAVVSHHADLHAGNYHLIGADLRQANELDQKLATCQLSHDIPTIFIAECVLVYMSADSSTALLKQIVSQFKQPAFVNYEQFRTSDAFTKVMEQNLGDRGIQLHGLEMCESAEKQEERFRNAGFKEVKVMDMNQIFNNFLDQKEVSRIREIEMLDEMELLQQLFAHYCVVSARI | not soluble

Source: the DeepSol protein solubility set
